Experimental data taken from paper PMC4598761, “Co-Expression of NEU2 and GBA3 Causes a Drastic Reduction in Cytosolic Sialyl Free N-glycans in Human MKN45 Stomach Cancer Cells—Evidence for the Physical Interaction of NEU2 and GBA3” (Biomolecules, 2015).

Biological target: T1, His-GBA3-HA (recombinant epitope-tagged cytosolic β-glycosidase GBA3) (human, UniProt Q9H227 1-469)
T1 construct: GBA3, cytosolic β-glycosidase, human; Construct pDEST17-His-GBA3-HA; also called β-galactosidase/β-glucosidase; source: E. coli BL21(AI), purified (Ni-Sepharose 6 Fast Flow); not shown: His6, N-terminal, kept; HA, C-terminal, kept
T1 sequence (looked up): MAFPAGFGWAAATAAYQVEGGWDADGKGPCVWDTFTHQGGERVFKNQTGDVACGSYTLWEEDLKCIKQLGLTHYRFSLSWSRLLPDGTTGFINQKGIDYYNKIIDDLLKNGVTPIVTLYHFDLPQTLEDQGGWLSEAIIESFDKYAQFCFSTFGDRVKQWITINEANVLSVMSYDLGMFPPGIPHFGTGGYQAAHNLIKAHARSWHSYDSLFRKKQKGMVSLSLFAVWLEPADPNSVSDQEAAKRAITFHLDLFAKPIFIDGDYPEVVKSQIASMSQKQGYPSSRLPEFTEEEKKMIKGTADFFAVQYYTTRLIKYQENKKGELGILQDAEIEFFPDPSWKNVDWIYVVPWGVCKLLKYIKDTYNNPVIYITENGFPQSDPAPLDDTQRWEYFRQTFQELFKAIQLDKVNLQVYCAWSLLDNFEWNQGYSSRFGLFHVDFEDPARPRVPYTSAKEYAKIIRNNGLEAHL
Assay: pull-down; purified recombinant proteins mixed overnight at 4 °C (1.5 mg/mL each), precipitated with 20 μL Ni-Sepharose 6 Fast Flow for 1 h at 4 °C (His-tagged protein held), washed three times with PBS, western blotting
Conditions: both partners purified

B1: GST-NEU2 (recombinant cytosolic sialidase NEU2) (enzyme, human, UniProt Q9Y3R4 1-380, looked up)
chain: MASLPVLQKESVFQSGAHAYRIPALLYLPGQQSLLAFAEQRASKKDEHAELIVLRRGDYDAPTHQVQWQAQEVVAQARLDGHRSMNPCPLYDAQTGTLFLFFIAIPGQVTEQQQLQTRANVTRLCQVTSTDHGRTWSSPRDLTDAAIGPAYREWSTFAVGPGHCLQLHDRARSLVVPAYAYRKLHPIQRPIPSAFCFLSHDHGRTWARGHFVAQDTLECQVAEVETGEQRVVTLNARSHLRARVQAQSTNDGLDFQESQLVKKLVEPPPQGCQGSVISFPSPRSGPGSPAQWLLYTHPTHSWQRADLGAYLNPRPPAPEAWSEPVLLAKGSCAYSDLQSMGTGPDGSPLFGCLYEANDYEEIVFLMFTLKQAFPAEYLPQ
notes: NEU2, cytosolic sialidase; source: E. coli BL21(DE3), purified (Glutathione Sepharose 4B)
B1: binds.
